Reference: patent US20230303690A1 (published 2023)
Where two headings read alike, the source gives them in different places.

Assays:
[1] = target: T1, LAG3 Protein, Human, Recombinant (His Tag) (Sino Biological Catalog No. 16498-H08H) (human, UniProt P18627 23-450); test: SPR binning on LAG3-His; competitor 17
T1 construct: Bought protein; also called hLAG3-His; LAG3-His; not shown: His tag
T1 sequence (looked up): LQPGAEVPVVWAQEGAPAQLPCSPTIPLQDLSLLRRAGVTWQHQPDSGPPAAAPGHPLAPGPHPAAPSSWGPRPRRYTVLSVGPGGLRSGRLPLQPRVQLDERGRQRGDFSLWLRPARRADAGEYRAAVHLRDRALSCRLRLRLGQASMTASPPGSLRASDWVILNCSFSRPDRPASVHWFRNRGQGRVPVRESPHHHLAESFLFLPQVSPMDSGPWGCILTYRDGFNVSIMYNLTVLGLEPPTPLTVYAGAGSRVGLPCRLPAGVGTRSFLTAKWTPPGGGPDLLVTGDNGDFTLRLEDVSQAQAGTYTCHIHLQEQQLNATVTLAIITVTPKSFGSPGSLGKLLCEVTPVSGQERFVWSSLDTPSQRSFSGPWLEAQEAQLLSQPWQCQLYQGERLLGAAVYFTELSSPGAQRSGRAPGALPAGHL
Experimental: (§1) The chip surface was regenerated after each cycle with 25 mM NaOH followed by HBS-EP wash provided in the kit.

[2] = target: T1, LAG3 Protein, Human, Recombinant (His …); test: SPR binning on LAG3-His; competitor 1
Experimental: as §1

[3] = target: T1, LAG3 Protein, Human, Recombinant (His …); test: SPR binning on LAG3-His; competitor 18
Experimental: as §1

[4] = target: T1, LAG3 Protein, Human, Recombinant (His …); test: SPR binning on LAG3-His; competitor 24
Experimental: as §1

[5] = target: T2, human LAG3 expressed on cells (human, UniProt P18627 23-525); test: cell-based or functional assay
T2 sequence (looked up): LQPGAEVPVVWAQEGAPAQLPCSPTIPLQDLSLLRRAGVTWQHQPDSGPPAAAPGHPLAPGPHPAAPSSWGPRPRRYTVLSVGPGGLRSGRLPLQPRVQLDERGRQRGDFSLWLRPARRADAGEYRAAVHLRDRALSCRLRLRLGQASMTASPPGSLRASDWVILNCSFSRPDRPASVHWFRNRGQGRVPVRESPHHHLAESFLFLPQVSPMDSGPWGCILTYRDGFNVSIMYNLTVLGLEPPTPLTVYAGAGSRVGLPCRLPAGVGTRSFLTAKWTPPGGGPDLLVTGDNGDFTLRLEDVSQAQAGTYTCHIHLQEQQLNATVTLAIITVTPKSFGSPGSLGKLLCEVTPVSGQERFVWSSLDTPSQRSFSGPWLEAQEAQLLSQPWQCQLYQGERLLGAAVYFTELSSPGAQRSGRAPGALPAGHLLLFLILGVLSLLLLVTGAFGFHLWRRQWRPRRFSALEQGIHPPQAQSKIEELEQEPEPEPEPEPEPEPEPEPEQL

[6] = target: T1, LAG3 Protein, Human, Recombinant (His …); test: SPR (Biacore), sdAb captured by anti-human Fc, LAG3-His analyte
Experimental: The binding of the single domain antibodies to recombinant human LAG3 protein (rhLAG3) was examined by Biacore™ assay. […] The coating was carried out according to the manufacturer’s instructions accompanying the kit (Catalog No. BR-1008-39, GE). […] The chip surface was regenerated after each cycle with 25 mM NaOH followed by HBS-EP wash provided in the kit.

[7] = target: T1, LAG3 Protein, Human, Recombinant (His …); test: SPR binning on LAG3-His; competitor 20
Experimental: as §1

[8] = target: T2, human LAG3 expressed on cells; test: cell-based or functional assay; remark: listed apart in the source
[9] = target: T1, LAG3 Protein, Human, Recombinant (His …); test: SPR binning on LAG3-His; competitor 73
Experimental: as §1

[10] = target: T1, LAG3 Protein, Human, Recombinant (His …); test: SPR binning on LAG3-His; competitor BMS
Experimental: as §1

[11] = target: T1, LAG3 Protein, Human, Recombinant (His …); test: SPR binning on LAG3-His; competitor 37
Experimental: as §1

[12] = target: T2, human LAG3 expressed on cells; test: cell-based or functional assay; remark: listed apart in the source
[13] = target: T1, LAG3 Protein, Human, Recombinant (His …); test: SPR binning on LAG3-His; competitor 27
Experimental: as §1

[14] = target: T1, LAG3 Protein, Human, Recombinant (His …); test: SPR binning on LAG3-His; competitor 25
Experimental: as §1

[15] = target: T1, LAG3 Protein, Human, Recombinant (His …); test: SPR binning on LAG3-His; competitor 21
Experimental: as §1

RU [1]: -14.7 RU | RU [2]: -9.5 RU | RU [3]: -9.1 RU | RU [4]: -9.9 RU | IL-2, % of BMS, at 0.005080526 ug/mL [5]: 7.39% | IL-2, % of BMS, at 0.015241579 ug/mL [5]: 10.9% | IL-2, % of BMS, at 0.045724737 ug/mL [5]: 12.9% | IL-2, % of BMS, at 0.137174211 ug/mL [5]: 5.27% | IL-2, % of BMS, at 0.411522634 ug/mL [5]: 6.53% | IL-2, % of BMS, at 1.234567901 ug/mL [5]: 15.5% | IL-2, % of BMS, at 3.703703704 ug/mL [5]: 35.1% | IL-2, % of BMS, at 11.11111111 ug/mL [5]: 45.5% | IL-2, % of BMS, at 33.33333333 ug/mL [5]: 61.7% | IL-2, % of BMS, at 100 ug/mL [5]: 60.9% | koff [6]: 3.69e-07 s⁻¹ | kon [6]: 2.31e+06 M⁻¹ s⁻¹ | RU [7]: -13.4 RU | EC50 for IL-2 rescue, hLAG3 Jurkat T system [8]: 60.6 nM | Efficacy (IL-2 production, BMS = 100%) [8]: 51.9% | RU [9]: -11.1 RU | RU [10]: 26.9 RU | RU [11]: -8.5 RU | IL-2, % of BMS, at 0.005080526 ug/mL [12]: 7.39% | IL-2, % of BMS, at 0.015241579 ug/mL [12]: 10.9% | IL-2, % of BMS, at 0.045724737 ug/mL [12]: 12.9% | IL-2, % of BMS, at 0.137174211 ug/mL [12]: 5.27% | IL-2, % of BMS, at 0.411522634 ug/mL [12]: 6.53% | IL-2, % of BMS, at 1.234567901 ug/mL [12]: 15.5% | IL-2, % of BMS, at 3.703703704 ug/mL [12]: 35.1% | IL-2, % of BMS, at 11.11111111 ug/mL [12]: 45.5% | IL-2, % of BMS, at 33.33333333 ug/mL [12]: 61.7% | IL-2, % of BMS, at 100 ug/mL [12]: 60.9% | RU [13]: -5.3 RU | RU [14]: 274 RU | RU [15]: -11.4 RU
B1: sdAb No. 18 (VHH)
VHH: QVQLVESGGGLVQPGGSLRLSCAASGFTLNEHAIGWFRRAPGKEREGVSCISSSDGSTYYHDSVKGRFNMSRDDAKNSVYLQMSSLKPEDTAIYYCAAALGRDCQGGQWKTSSWGQGTQVTVSS
notes: Fc of the tested form not described; also called sdAb 18; not shown: Fc part implied by anti-human Fc capture
